# Laboratory results published in doi:10.1101/2020.05.28.119206 (bioRxiv, 2020).
# B1: elastase-digested native human uromodulin filaments (UMODe) (domain or fragment)
# chain: not shown
# modifications: N-glycans at N322, N396, N513
# Molecular target: the molecule itself
# Assay: cryo-EM structure
protein,measurement,value
B1,binding result,binds
